# Data: article doi:10.1101/2024.05.06.590709 (bioRxiv, 2024)
# Columns and labels:
# mass photometry = target: the molecule itself; assay: mass photometry
# SEC-MALS = target: the molecule itself; assay: SEC-MALS
protein,measurement,setting,value
"NIT1 WT (purified recombinant AtNIT1) (enzyme, RED-NHS 2nd Generation dye (in the MST only)) MSSTKDMSTVQNATPFNGVAPSTTVRVTIVQSSTVYNDTPATIDKAEKYIVEAASKGAELVLFPEGFIGGYPRGFRFGLAVGVHNEEGRDEFRKYHASAIHVPGPEVARLADVARKNHVYLVMGAIEKEGYTLYCTVLFFSPQGQFLGKHRKLMPTSLERCIWGQGDGSTIPVYDTPIGKLGAAICWENRMPLYRTALYAKGIELYCAPTADGSKEWQSSMLHIAIEGGCFVLSACQFCQRKHFPDHPDYLFTDWYDDKEHDSIVSQGGSVIISPLGQVLAGPNFESEGLVTADIDLGDIARAKLYFDSVGHYSRPDVLHLTVNEHPRKSVTFVTKVEKAEDDSNK",stoichiometry N,mass photometry,≤ 10
same,stoichiometry N,SEC-MALS,20
